Experiment: yeast display, Sf9 membrane polyspecificity reagent, FACS + sequencing; frameworks hold sequencing errors
How it was run: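 A nanobody's polyreactivity label depends on the gate it was sorted from. Yeast display cells were stained with 10% biotinylated, detergent-solubilized Sf9 membrane reagent for 1 hour at 4 °C, enriched on streptavidin microbeads and sorted by FACS. The low and high (top ~1%) gates were set on anti-HA fluorescence for expression and streptavidin fluorescence for reagent binding.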

| Sequence | polyreactivity (PSR sort gate) |
| --- | --- |
| QVQLVESGGGLVQARGSLRLSCAASGSIFHHYAMGWYRQAPGKDTELVAAISKSGGSTYYADSVKGRFTISRDNAKNTVYLQMNSLKPEDTAVYYCNAEVFWWDLWYDYWGQGTKVTVSS | high polyreactivity |
| QVQLVESGGGLVQAGGSLRLSCAAYGRTFWNYAMGWYRQAPGKERELVAAISSSGGTTYYADSVKGRFTISRDNAKNTVYLQMNSLKPEDTAVYYCAATGVSKPQRSFVYWGQGTQVTVSS | low polyreactivity |
| QGQLEESGGGLVQAGGSLRLSCAASGFIIYDYDMGRYRQAPGKERELVAAITYSGGSTYYADSVKGRFTISRDNAKNTVYLQMNSLKPEDTAVYHCAAVKSRYAVAVDYYYWGQGTQVTVSS | low polyreactivity |
| QVQLVESGGGLVQAGGSLRLSCAASGRTFDIYAMGWYRQAPGKARELVAAISIAGSTNYADSVKGRFTISRDNAKNTVYLQMNSLKPEDTAVYYCAAAKPKKSRGSAYEYWGQGTLVTVSS | high polyreactivity |
| QDQLVESGGGLVQAGDSLRLSCAASGIILLSYAMGWYRQAPGKERELVAAITSGGGTNYADSVKGRFTISRDNAKNTVYLQMNSLKPEDTAVYYCAVGAYAGLYYYWGQGTQVTVSS | low polyreactivity |
| QVQLVESGGGLVQAGGSLRLSCGASGRIFATNAMGWYRQAPGKERELVATITRSAGRTYYADSVKGRFTISRDNAKNTVYLQMNSLIPEDTAVYYCAASYLDSEPGYREYDYWGQGTQVTVSS | low polyreactivity |
| QVQLVESGGGLVQAGGSLRLSCAASGFTFGSNAMGWYRPAAGKERELVASITTRGGSTYYADSVKGRFTISRDNAKNTVYLQMNSLKPEDTAVYYCAARARYPNWTYYYWGQGTQVTVSS | high polyreactivity |
| QVQLVESGGGLVQAGGRLRLSCAASGSIFRYYDMGWYRQATGKEREFVAAISYRGGTTYYADSVKGRFTISRDNAKNTVYLQMNSLKPEDTAVYYCAKETYRSSSYDWYDYWGQGTQVTVSS | low polyreactivity |
| QDQLVETGGGLVQAGGSLRLSCAASGSTFWGNAMGWYRQAPGKESELVAAISTSDTSTYYADSVKGRFTISRDNAKNTVYLQMNSLKPEDTAVYYCAAEWYYGEKYDYWGQGTQVTVSS | low polyreactivity |
| QVQHVESGGGLVQAGGSLRLSCAASGSIFTTYAMGWYRQAPGKERELVAAISSGGGTNYADSVKGRFTISRDNAKHTVYLQMNSLKPEDTAVYYCNKRYYRLQLHNAYGATPRRNYWGQGTQVTVSS | low polyreactivity |
| QVQLVESGGGLVQAGGSLRLSCAASGSIFWLYAMGWYRQAPGKERELVAAIDSGDSTKYADSVKGRFTISRDNAKNTVYLQMNSLKPEDTAVYYCNVRLGDRFFRHDYWGQGTQVTVSS | low polyreactivity |
| QVQLVESGGGLVQAGGSLRLSCAASGTFDTYSMGWNRQAPGKERELVADISSVGSTYYADSVKWRFTISRDNAKNTVYLQMNSLKPEDTAVYYCAATYPYPYYYIEYYYWGQGTQVTVSS | low polyreactivity |
| QVQLQESGGGLVQAGGTLRLSCAASGTISFTRDMGWYRQAPGKEREFVASIDRGASTYYADSVKGRFTISRDNAKNTVYLQMNSLKPEDNAVYYRAVIAPFYSSFAYWGQGTQVTVSS | high polyreactivity |
| QVQHVESGGGLVQAGGSLRLSCAASGITFVDNAMGWYRQAPGKEREWVAVISSSGGSTYYADSVKGRFTISRDNAKNSVYLQMNSLKPEDTAVYYCAARNRFYRRPYDYWGQGTQVTVSS | high polyreactivity |
| QVQLVESGGGLVQAGGSLRLSCAASGSIFRYAMGWYRQAPGKEREFVAAITSRGGTTYYADSVKGRFTISRDNAKNTVYLLMNSLKPEDTAVYYCYAHRYATAGSWVVRHDYWGQGTQGTVSS | high polyreactivity |
| QVQLQESGGGLVQAGGSLRLSCAASGSSFEELDMGWYRQAPGKEREFVAAIGTGSTTYYADSVKGRLTISRDNAKNTVYLQMNSLKPEDTAVYYCAVDTWARAYLGYWGQGTQVTVSS | high polyreactivity |
| QVQLVESGGGLVQAGGSLRLSCAASGSTFVPYAMGWNRQAPGKERELVASISWRGGSTSYADSVKGRFTISRDNAKNTVYLQMNSLKPEDNAVYYCAARPRYRYKQDYYYWGQGSQVTVSS | high polyreactivity |
| QVQLVESGGGLVQAGGTLRLSCAASGSILGGNAMGWYRQAPGKERELVAAITFSGGGTYYADSVKGRFTISRDNAKNTVYLQMNSLKPEDTAVYYCAADKDGYTYEFDYWGQGTQVTVSS | low polyreactivity |
| QVQLVESCGGLVQAGGSLRLSCAASGRNFYFNAMGWYRKAPGKERELVARISTGGITNYADSVKGRFTISRDNAKITVYLQMNSLKPEDTAVYYCAADYRRTWRYNYCGQGTQVTVSS | high polyreactivity |
| QVQLVESGGGLVQAGGSLRLSCAASGSTFYPNAMGWYRQAPGKERELVAAISRGTRTKYADSVKGRFTISRDNAKNTVYLQMNSLKPEDTAVYYCAADTGTGLDWGQGTQVTVSS | high polyreactivity |
| QVQLVESGGGLVQAGGSLRLSCAASGSIFYRNAMGCSRQARGKERELVAAISSSGTRTYYADSVKGRFTISRDNAKNTVYLQMNILKPEDTAVYYCAAGVVLWYRRRYYYWGQGTQVTVSS | high polyreactivity |
| QVQLVETGGGLVQAGGSLRLSCAASGRIFRGNTMGWYRQAPGKERELVAAISWRGGRTYYADSVKWRFTISRDNAKNTVYLQMISLKPEDTAVYYCNAVYFQTGVYGYGDYDSWGQGTQVTVSS | low polyreactivity |

| Sequence | polyreactivity (PSR sort gate) |
| --- | --- |
| QVHLVESGGGLVQAGGSLRLSCAASGRILGDYAMGWYRQAPGKEREFVAAIDYNGGSTNYADSVKGRFTISRDNAKNTVYLQMNSLKPEDTAVYYCAAPGFPSRNGFGYWGQGTQVTVSS | low polyreactivity |
| QVQLVESGGGLVQAGGSLRLSCAASGNIFYQYAMGWYRQAPGKDREFVAAISISGTSTYADSVKGRFTISRDNAKNTVYLQMNSLKPEDTAVYWGQGTQVTVSS | low polyreactivity |
| QVQLVESGGGLVQAGGSLRLSCAASGLIFPAYAMGWYRQAPGKERELVAAISYSGGRTYYADSVKGRVTISRDNAKNTVYLQMNSLKPEDTAVYYCNTGYWYVSLGSYDYYGEYDYWGQGTQVTVSS | high polyreactivity |
| QVQLVDSGGGLVQAGGSLRLSCADSGRTFYTNAMGWYRQAPGKERELVAAIDISGSTYYADSVKGRFTISRDNAKNTVYLQMNSLKPEDTAVYYCNVDTVCLGGEKGGYYWGQGSQVTVSS | low polyreactivity |
| QVQLVESGGGLVQAGGSLRLSCAASGITFSRYGMGWYRQAPGKERELVAVISWRGGRTYYADSVKGRFTISRYNAKNTVYLHMNSLKPEDTAVYYCAADSRQSVYDYDYWGQGTQVTVSS | high polyreactivity |
| QVQLVESGVGLVQAGGSLRLSCAASGNIFGVYAMGWYRQAPGKERELVATITTGGSTYYADSVKGRFTISRDNAKNTVYLQMNSLKPEDSAVYYCAADVGGGNYVYYGNDYDDGYWGQGTQVTVSS | low polyreactivity |
| QVQLVESGGGLVQAGGSLRLSCAASGRIFDYYTMGWYRQAPGKERELVAAITWIGGSTYYADSVKGRFTISRDNAKNTVYLQMKSLKPEETAVYYCYAEGTALPYRADTVGGYYYWGQGTQVTVSS | low polyreactivity |
| QVQLVESGGGLVQAGGSLRLSCAASGTIFNEYAMGWYRQAPGKERELVAAISTSGDITYYADSVKGRFTISRDNAKNTVYLQMNSLKPEDTAVYYCAAKYSLLRQYNRLDYWGQGTQVTVSS | low polyreactivity |
| QVQLVESGGGLVQAGGSLRLSCAASGRNFILNAMGWYRQAPGKERELVAAISWSGGSTYYADSVKGRFTISRDNAKNTVYLQMNSLKPEDTAVYYCAAETYAYLFHTYDYWGQGTQVTVSS | low polyreactivity |
| QVQLVESGGGLVQAGRSLRLSCAASGRTFGTNAMGWYRQAPGKERELVAAISRRGGSTYYADSVKGRFTISRDNAKNTVYLQMNCLKPEDTAVYYCASDFWYYQYPYGGGGYWGQGTQVTVSS | low polyreactivity |
| QVHIVESGEVIVQAGGSLRLSCDASGFTIIQYAMGWYRQAPGKERELVAAISVSGGSTYYADSVKGRFTISRDNAKNTVYLQMNSLKTEDTAVYYCATYGFHSIGSIFEYEYWGQGTQVTVSS | high polyreactivity |
| QVQLVESGGGLVQAGGSLRLSCAASGYIVDRNAMGWYRQAPGKERELVAAITKRGGITYYADSVKGRFTISRDNAKNTVYLQMNSLKPEDTAVYYCNALARSSRYDYWGQGTQVTVSS | low polyreactivity |
| QVQLVESGGGLVQAGGSLRLSCAASGFTFRSYAMGWYRQAPGKEREFVAAINGRSGSTYADSVKGRFTISRDNAKNTVYLQMTSLKPEDTAVYYCAARVRRGSTQAQYYYWGQGTQVTVSS | high polyreactivity |
| QVQLVESGGGLVQAGGSLRLSCAASGLTIRYYAMGWYRKAPGKERELVAAISSSGGRTYYADSVKGRFTISRDNAKNTVYLQMNSLKPEDTAVYYCSRDYGYGLMGYWGQGTQVTVSS | high polyreactivity |
| QVQLVESGGGLVQAGGSLRLSCAASGLTFIINDMGWYRQAPGKERELVAGITNGGSTYADSVKGRFTISRDNAKNTVYLQMNCLKPEDTAVYYCAVPWYDFARSIQVDEYDYWGQGTQVTVSS | low polyreactivity |
| QVQLVESGGGLVQAGGSLRLSCAASGSTLYIYAMGWYRQAPGKERELVAAITSSTGSTYADSVKGRFTISRDNAKNTVYLQMNSLKPEDTAVFVCNAGGPLQPYDYWGQGTQVTVSS | low polyreactivity |
| QVQLVESGGGLVQAGGSLRLSCAASGSTFKAYAMGWYRQAPGKERELVAAITRRGTSTYYADSVKGRFTISRDNAKNTDYFQMNRLKPEDTAVFYCNAKYVSDRSSAVSFDYWVQGTQVTVSS | low polyreactivity |
| QVQLEESGGGLVQAGGSLPLSCASSGRIFCVYAMGWYRQAPGKESELVATITSGGSTSYADSVKGRFTISRDNANYTVYLLMNSLKPEDTAVYYCNGPYSFFWQQMNYWGHGTQVTVSS | low polyreactivity |
| QVQLVESGGGLVQAGGSLGLSCAASGRTFGRYVMGWYRLAPGTEWELVAAIRSSGGGTYYADSVKGRFTISRDNAKNTVYLQMNSLKPEETAVYYCAKEYSIGIRWEYDYWGQGTQVTVSS | low polyreactivity |
| QVQLVESGGGLVQAGGSLRLSCAASGSIFAANAMGWYRQAPGKEREFVASISRSGGSTYYADSVKGRFTISRDNAKNTVYLQMTSLKPEDTAVYYCATRTRIYSARDHYGYWGQGTQVTVSS | low polyreactivity |
| QVQLVESGGGLVQAGGSLRLSCAASGRTFYYYARGWYRQAPGKERELVAAISSRGGSTYYADSVKGRFTISRDNAKNTVYLQMNSLKPEDTAVYYCAAERYFVLYRYYSYAYYYWGQGTQVTVSS | high polyreactivity |

Source: the nanobody polyreactivity screen of Harvey et al. (2022)
